Eight sequences from a protein production outcome set (Wang et al. 2014) can be followed below.

A short description of the data set: label from the status in PepcDB records.

Turning to “MNIETLMIKNPPILSKEDRLGSAFKKINEGGIGRIIVANEKIEGLLTTRDLLSTVESYCKDSCSQGDLYHISTTPIIDYMTPNPVTVYNTSDEFTAINIMVTRNFGSLPVVDINDKPVGIVTEREFLLLYKDLDEIFPVKVFMSTKVQTIYKEVRLDQAVKLMLRRGFRRLPVIDDDNKVVGIVTVVNAIKQLAKAVDKLDPDYFYGKVVKDVMVTNLVTIDELASVNRAAAEMIVKRIGSLLILNKDNTIRGIITERDLLIALHHILVMEKFKEKL”, the protein production entry is recorded as “not failed”.
In the case of “MNIILLSGKKSEAQPGDGEYPEYLCEYNGKPLIHTLIDNCAALEPRRIICTFSNDDVIGLHLRNMVQQMHPSASVLPVHNITQGAACTALLASGQIDNDDELLILSVSDFLDIELREVLRVFREANEDAGVVIFNSLHPRYSFARLDSDQRVIEAAEKNPISPHAIAGMYWFKSGSLFVSAAKEMIRKDARVNDHFYIAPALNELVLLHKKIGAYRIEPRQYRPLKTQNQLHAFEMADIR”, the protein production entry is “failed”.
The value for “MNIILNVFLIFVSAILTKLFALFAQHTKLIDIPNERNLHSRPTVRGGGLVFIGLSLFCWFFICNSQFFLTLDQFIFSIAIIFIATISFIDDFYNLSVTIRFFFQCLIAFLIVIFILPSQLDFGLFLFENTYLIAFFLFFAVIWAINHFNFMDGLDGFCASQAIFLLAAYALFFNSAGSLIYQDFCLILISSLAGFLIFNFPPAKIFMGDVGSASLGLITFFIAIIAQKNYQIPILYWFILNSLFLFDSTVTLIRRIIKHEKWFSPHKKHAYQRLKQLGINSRFILLGQAIINGSLFLSVMFMHFQFFNLKNLIIIQLCYLSAIYFFIEKKYPME” was “failed”; that for “MNINIEDLIFSLDIGTRTVIGTVGSIKDKKFSVIAEKHTEHEERAMVDGQIHDINLVARAVNKVKSQIEEELGFELKDVAIAAAGRFLRTTAVRSELNIDEDKEIDKDVIRGLELTAVKKAQDEVNKETEGKLYCVGYSVKNYFLNGYAISNLLSHKGNSIAVDVIATFLPRSIVESLYAVMNKVNLNVKSLTLEPIAAMEAAVPKNLRLLNIALLDVGAGTSDIAISSKDTISAYGMVPFAGDEITEVIAQNYLVDFNTAENIKRSCNVDTEIKYTDVLGIENTIKSEEVIKLIQPTVQKLAEEVANKIIELNGEKSPNAVFIVGGGAHTPMLKDLLAENLKIQPQRLAIKGRESVTDCICTDNSLGSTGVTVLGIALVAIRRFGNDFIDVILNDNIISLFNARVHTVKDVVVQAGVNPKLLIGKNGKNVRFILNGVKRVAFGTVAKNAEIRINGLIANIDSEVKENDKIEIKYAENGIDASPIIKDYVKNLYSLGFFIDDEVVNLEPIFIINGNKVTIDTEISEGDEVETVYPSKLIHYIRYYDSDLNKEYYINNIKLDENYDIKEGDRIYTKPKEEEQEVEIIPLAEEDKEEQEVVSHPKEIEKEDDDVNTIVVVVNGNPIKMSGKEKYKFVDIFDYFKFDLTQVKGNLVLTLNGEKVSFFDELHDKDIIEVKWE” was “failed”; that for “MNIPVEVEVAEVLTDSAATGIFEPGDKLLSIDGTAISTPGDAQTIVRSKAPGDEITISYERNDAESQATITLREHPLEHHHHHH” was “failed”.
On to “MNIQALLSEKVSQALIAAGAPADCEPQVRQSAKVQFGDYQANGVMAVAKKLGMAPRQLAEQVLSHLDLNGIANKVEIAGPGFINIFLDPAFLADNVNRALQSERLG”, for which the protein production result is “not failed”.
For the sequence “MNIRERKRKHLEACLEGEVAYQKTTTGLEGFRLRYQALAGLALSEVDLTTPFLGKTLKAPFLIGAMTGGEENGERINLALAEAAEALGVGMMLGSGRILLERPEALRSFRVRKVAPKALLIANLGLAQLRRYGRDDLLRLVEMLEADALAFHVNPLQEAVQRGDTDFRGLVERLAELLPLPFPVMVKEVGHGLSREAALALRDLPLAAVDVAGAGGTSWARVEEWVRFGEVRHPELCEIGIPTARAILEVREVLPHLPLVASGGVYTGTDGAKALALGADLLAVARPLLRPALEGAERVAAWIGDYLEELRTALFAIGARNPKEARGRVERV”, the protein production entry is “not failed”.
In the case of “MNISEINGFEVTGFVVRTTNADEMNPMTAKIGNLWEKFYLNAAPKLTDKSKVYGLYTNYESDFTGAFDVIACSDTLSPQLLSESVKTKVSSGKYVTFSATGEMPQVVIDLWNEVWNYFASEHCPHKRAYTTDFEYYKSANTVEISIAVR”, the protein production entry is listed as “not failed”.
